Legend:
human factor XI = target: T1, human factor XI (human, UniProt P03951 19-625); experiment: Western blot of plasma
T1 construct: Disulfide-bonded homodimer of about 160 kDa; also called FXI; human FXI

baboon factor XI = baboon factor XI (baboon (Papio anubis)); experiment: cell-based or functional assay
Prekallikrein (PK) = Prekallikrein (PK) (UniProt P03952 20-638, limits assumed); experiment: Western blot
Sequence of Prekallikrein (PK) (P03952 20-638 limits assumed): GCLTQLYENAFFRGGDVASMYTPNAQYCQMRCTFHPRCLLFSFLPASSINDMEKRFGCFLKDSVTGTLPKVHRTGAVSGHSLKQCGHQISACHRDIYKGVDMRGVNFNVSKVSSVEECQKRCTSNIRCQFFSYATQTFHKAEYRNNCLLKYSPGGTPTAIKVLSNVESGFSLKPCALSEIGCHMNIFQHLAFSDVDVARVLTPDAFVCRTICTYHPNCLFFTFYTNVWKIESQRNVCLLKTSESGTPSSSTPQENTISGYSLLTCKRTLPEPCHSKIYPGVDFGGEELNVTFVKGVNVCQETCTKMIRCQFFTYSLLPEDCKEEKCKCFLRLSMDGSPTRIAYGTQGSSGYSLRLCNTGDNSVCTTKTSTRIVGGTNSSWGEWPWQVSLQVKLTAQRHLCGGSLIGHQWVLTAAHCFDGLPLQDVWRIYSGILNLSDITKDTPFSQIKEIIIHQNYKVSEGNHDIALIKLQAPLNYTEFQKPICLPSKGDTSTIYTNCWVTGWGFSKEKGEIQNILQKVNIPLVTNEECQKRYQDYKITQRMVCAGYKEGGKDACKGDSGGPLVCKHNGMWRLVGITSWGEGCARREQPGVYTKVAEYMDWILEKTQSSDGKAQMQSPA

T1 sequence (P03951 19-625 I95Y limits assumed): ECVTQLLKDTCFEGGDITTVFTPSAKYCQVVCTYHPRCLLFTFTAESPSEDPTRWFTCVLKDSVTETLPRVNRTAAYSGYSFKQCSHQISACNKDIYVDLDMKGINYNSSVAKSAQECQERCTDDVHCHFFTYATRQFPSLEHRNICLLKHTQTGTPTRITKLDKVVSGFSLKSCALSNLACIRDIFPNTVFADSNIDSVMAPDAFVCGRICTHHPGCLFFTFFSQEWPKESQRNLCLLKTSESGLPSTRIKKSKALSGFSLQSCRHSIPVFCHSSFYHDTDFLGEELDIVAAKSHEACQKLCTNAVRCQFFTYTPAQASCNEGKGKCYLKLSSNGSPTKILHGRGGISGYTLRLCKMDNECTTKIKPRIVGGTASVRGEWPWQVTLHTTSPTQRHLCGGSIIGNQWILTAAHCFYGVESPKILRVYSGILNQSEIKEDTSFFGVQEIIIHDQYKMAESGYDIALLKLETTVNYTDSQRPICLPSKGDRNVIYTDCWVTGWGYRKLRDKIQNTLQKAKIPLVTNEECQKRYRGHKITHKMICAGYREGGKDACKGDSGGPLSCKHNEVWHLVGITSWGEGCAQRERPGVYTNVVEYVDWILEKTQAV

B1: anti-factor XI monoclonal antibody 1A6 (aXIMab) (antibody, V domains shown)
VH: QVTLKESGPGILKPSQTLSLTCSFSGFSLSTSGMGVGWIRQPSGKGLEWLAHIWWDDDKYYNPSLKSQLTISKDTSRNQVFLKITSVDAADTATYYCARKRSSVVAHYYAMDYWGQGTSVTVSS
VL: DIVLTQSPASLAVSLGQRATISCKASQSVDYDGDSYLNWYQQKPGQPPKLLIYAASNLESGIPARFSGSGSGTDFTLNIHPVEEEDAATYYCQQSNGDPWTFGGGTKLEIK
notes: also called anti-FXI monoclonal antibody
binding result (human factor XI): binds | IC50 in a clotting assay using FXI deficient human plasma with serial dilutions of NBP as standards (baboon factor XI): 2.5 nM | binding result (Prekallikrein (PK)): no binding
